B1: Ankyrin-3, residues 4094 to 4171; numbered along this chain, Q12955 (parent)
chain: MAIVADHLGLSWTELARELNFSVDEINQIRVENPNSLISQSFMLLKKWVTRDGKNATTDALTSVLTKINRIDIVTLLE

Variants of: B1
Experiment: abundance fitness (aPCA) (normalised: wild type 0, dead -1); higher = more abundant; growth selection in yeast, the domain comes from the species named
Settings: Homo sapiens

Abundance fitness of substitutions, site by site:
N20: F -0.196 | Y -0.348 | E -0.101 | W -0.902 | Q -0.329 | I -0.609 | L -0.191 | V -0.608 | M -0.113 | P -1 | R -0.18 | K -0.169 | C -0.348 | D 0.093 | G -0.081 | A -0.162 | H -0.035
L10: F 0.032 | D -0.011 | A -0.064 | M -0.114 | G -0.043 | H 0.124 | R -0.022 | T -0.046 | E 0.05 | S 0.081 | W -0.101 | N -0.133 | Y -0.104 | I -0.096 | V 0.029 | C -0.016 | Q 0.04 | P -0.04
A16: G -0.257 | L -0.996 | V -0.531 | R -0.893 | Q -0.749 | S -0.907 | T -0.841 | P -0.895 | N -0.793 | H -0.601 | D -0.813 | W -0.79
G9: D -0.503 | N -0.047 | H -0.667 | Q -0.39 | S -0.535 | A -0.499 | T -1 | E -0.273 | Y -0.924 | W -0.786 | M -0.244 | P -0.868 | V -0.551 | C -0.781
M1: V -0.151 | E -0.365 | K -0.421 | C -0.198 | H -0.587 | I -0.321 | N -0.099 | T -0.801 | R -0.265 | A -0.322 | Y 0.23 | G -0.566 | D -0.643
W12: Q -0.534 | T -1.1 | A -0.862 | P -0.433 | E -0.903 | L -0.838 | C -0.931 | V -0.753 | S -0.968 | R -0.844 | M -0.844 | I -0.738
V23: Q 0.16 | H 0.02 | A -0.12 | C -0.22 | K -0.142 | P -0.034 | I -0.073 | R -0.027 | L -0.048 | N 0.097 | E -0.04 | D -0.335 | G -0.004 | F -0.142
S11: C -0.342 | T -0.314 | E -0.326 | D 0.092 | G -0.261 | V -0.84 | A -0.31 | W -1.05 | Q -0.053 | F -0.654 | I -0.422 | P -1.03 | N 0.009 | R -0.965 | M -0.94 | L -0.963 | K -0.761
V4: Q -0.659 | R -0.925 | M -0.963 | A -0.253 | T -0.291 | S -0.766 | E -1.01 | I -0.169 | N -0.663 | F -0.789 | G -0.889 | K -0.806 | P -0.921 | W -1.01 | L -0.397
L19: P -0.855 | C -0.793 | T -0.927 | M -0.33 | V -0.651 | S -1.05 | I -0.333 | W -0.494 | R -0.79 | G -1.01 | Q -0.781 | A -0.591 | H -0.694
L8: E -0.984 | K -0.696 | F -0.463 | S -0.916 | G -0.983 | M -0.574 | Y -0.63 | Q -0.755 | V -0.769 | W -0.552 | C -0.787 | P -1 | A -1.07 | R -0.829
D6: R -0.163 | L -0.352 | I -0.755 | F -0.658 | P -0.238 | M -0.299 | V -0.296 | S -0.258
